Target: T1, GAL4-DB (amino acids 1-147) expressed alone (yeast, UniProt P04386 1-147)
T1 construct: range 1-147; Negative control, not fused to another polypeptide; also called pPC97
Test: yeast reporter SPAL5:URA3, growth on Sc-ura and 5-FOA
From the text: In this example, we employed the SPAL5:URA3 allele, which carries 5 GBSs.

T1 sequence (P04386 1-147 limits assumed): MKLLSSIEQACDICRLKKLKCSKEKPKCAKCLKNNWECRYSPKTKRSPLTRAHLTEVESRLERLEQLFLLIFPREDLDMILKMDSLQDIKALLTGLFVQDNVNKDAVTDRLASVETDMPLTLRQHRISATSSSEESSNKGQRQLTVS

B1: GAL4-AD (amino acids 768-881) expressed alone (other, yeast, UniProt P04386 768-881, looked up)
chain: ANFNQSGNIADSSLSFTFTNSSNGPNLITTQTNSQALSQPIASSNVHDNFMNNEITASKIDDGNNSKPLSPGWTDQTAYNAFGITTGMFNTTTMDDVYNYLFDDEDTPPNPKKE
notes: range 768-881; Negative control, not fused to another polypeptide; also called AD empty (pPC86); pPC86
B1: no binding.

Source: US20050053913A1 (Johns Hopkins, published 2005)
